# Data published in patent US20110217282.
# T1: MazE, P0AE72
# T1 chain: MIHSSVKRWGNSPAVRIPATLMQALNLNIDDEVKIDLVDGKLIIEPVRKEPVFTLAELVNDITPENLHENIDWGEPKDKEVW
# T2: C-terminal histidine-tagged YgiT
# T2 chain: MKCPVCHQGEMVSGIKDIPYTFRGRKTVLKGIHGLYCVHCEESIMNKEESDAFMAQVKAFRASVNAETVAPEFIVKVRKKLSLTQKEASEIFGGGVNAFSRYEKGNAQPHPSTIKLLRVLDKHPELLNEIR
# Assays:
# MazE, P0AE72 = molecular target: T1, MazE, P0AE72
# [1] = molecular target: T2, C-terminal histidine-tagged YgiT
protein,measurement,setting,value
MazF (protein) MVSRYVPDMGDLIWVDFDPTKGSEQAGHRPAVVLSPFMYNNKTGMCLCVPCTTQSKGYPFEVVLSGQERDGVALADQVKSIAWRARGATKKGTVAPEELQLIKAKINVLIG,cleavage of MS2 RNA (agarose gel),"MazE, P0AE72","its activity was completely inhibited when it was preincubated with purified MazE, the antidote of MazF"
same,cleavage of MS2 RNA (agarose gel),[1],"when MazF was incubated with purified YgiT-H, its activity was not inhibited"
